{"source": "patent US20170233470A1", "target": "NTSR1", "assay": "cell-based or functional assay", "data": [{"substance": "Neurotensin (NTS) (from UniProt P30990 151-163) (peptide)", "values": [{"measurement": "decrease in cell growth (proliferation) of CHO cells overexpressing NTSR1", "result": 60, "unit": "%"}]}]}
